Substitutions are numbered along the chain they refer to. Numbers in names are those of the source.
Columns and labels:
Assay in all cases: split reporter (BiFC, NanoBiT); BiFC quantified by flow cytometry: 293T cells co-transfected with 0.25 μg of each BiFC construct and mRFP1, harvested about 14 h after transfection and fixed; percent of mRFP+ cells that are YFP+, and mean intensity of YFP+ cells
Conditions in all cases: partners not purified
H65R-CY = biological target: T1, H65R-CY (human, UniProt Q9HC16 1-384, H65R)
T1 construct: APOBEC3G (A3G), human, CD1 mutant H65R; as A3G-CY with the mutation; also called CD1 mutant H65R of A3G-CY; source: HeLa and 293T cells, transfected, in living cells; 293T, transfected, in lysate (co-IP); not shown: CY (YFP residues 173-238), C-terminal, kept

F70A-CY = biological target: T2, F70A-CY (human, UniProt Q9HC16 1-384, F70A)
T2 construct: APOBEC3G (A3G), human, CD1 mutant F70A; as A3G-CY with the mutation; also called CD1 mutant F70A of A3G-CY; source: HeLa and 293T cells, transfected, in living cells; 293T, transfected, in lysate (co-IP); not shown: CY (YFP residues 173-238), C-terminal, kept

Y91A-CY = biological target: T3, Y91A-CY (human, UniProt Q9HC16 1-384, Y91A)
T3 construct: APOBEC3G (A3G), human, CD1 mutant Y91A; as A3G-CY with the mutation; also called CD1 mutant Y91A of A3G-CY; source: HeLa and 293T cells, transfected, in living cells; not shown: CY (YFP residues 173-238), C-terminal, kept

B1: H65R-NY (natural protein, human, UniProt Q9HC16 1-384, looked up)
chain: MKPHFRNTVERMYRDTFSYNFYNRPILSRRNTVWLCYEVKTKGPSRPPLDAKIFRGQVYSELKYRPEMRFFHWFSKWRKLHRDQEYEVTWYISWSPCTKCTRDMATFLAEDPKVTLTIFVARLYYFWDPDYQEALRSLCQKRDGPRATMKIMNYDEFQHCWSKFVYSQRELFEPWNNLPKYYILLHIMLGEILRHSMDPPTFTFNFNNEPWVRGRHETYLCYEVERMHNDTWVLLNQRRGFLCNQAPHKHGFLEGRHAELCFLDVIPFWKLDLDQDYRVTCFTSWSPCFSCAQEMAKFISKNKHVSLCIFTARIYDDQGRCQEGLRTLAEAGAKISIMTYSEFKHCWDTFVDHQGCPFQPWDGLDEHSQDLSGRLRAILQNQEN
notes: APOBEC3G (A3G), human, CD1 mutant H65R; as A3G-NY with the mutation; also called CD1 mutant H65R of A3G-NY; source: HeLa and 293T cells, transfected, in living cells; not shown: NY (YFP residues 1-172), C-terminal, kept
percent of mRFP+ cells that are YFP+ (BiFC) (H65R-CY): < 0.1%

B2: F70A-NY (natural protein, human, UniProt Q9HC16 1-384, looked up)
chain: B1 chain with R65H, F70A
notes: APOBEC3G (A3G), human, CD1 mutant F70A; as A3G-NY with the mutation; also called CD1 mutant F70A of A3G-NY; source: HeLa and 293T cells, transfected, in living cells; not shown: NY (YFP residues 1-172), C-terminal, kept
percent of mRFP+ cells that are YFP+ (BiFC) (F70A-CY): < 0.1%

B3: Y91A-NY (natural protein, human, UniProt Q9HC16 1-384, looked up)
chain: B1 chain with R65H, Y91A
notes: APOBEC3G (A3G), human, CD1 mutant Y91A; as A3G-NY with the mutation; also called CD1 mutant Y91A of A3G-NY; source: HeLa and 293T cells, transfected, in living cells; not shown: NY (YFP residues 1-172), C-terminal, kept
percent of mRFP+ cells that are YFP+ (BiFC) (Y91A-CY): < 0.1%

Source: paper PMC2700067, “Intracellular interactions between APOBEC3G, RNA, and HIV-1 Gag: APOBEC3G multimerization is dependent on its association with RNA” (Retrovirology, 2009)
